Assay results taken from US20180009879A1.

How the values were obtained:
[1] = target: HSV-2 (MS strain, VR-540 ATCC): unidentified viral antigen on virions or infected VERO-E6 cells (Herpes simplex virus 2); assay: cell-based or functional assay
[2] = target: HSV-1 (HF strain, VR-260 ATCC): unidentified viral antigen on virions or infected VERO-E6 cells (Herpes simplex virus 1); assay: cell-based or functional assay

B1: Fab Ex2 (IgG1 Fab format) (Fab, V domains shown)
VH: LESGGGVVQPGRSLRLSCAASGFTFTTFAMHWVRQAPGKGLEWLAFISYDGSNKYYADSVKGRFTISRDNSKNTLYLQMNSLRAEDTSIYYCAREVWNYADYWGQGALVTVSS
VL: ELTQSPGTLSSSPGHRATLSCKASAPLGSNHMAWYQQKPGQAPRLLIYGASTRATGVPARFTGSGSGTDFTLTISSLQPEDFATYYCQQANSFPRTFGQGTKVEIK
concentration reducing HSV cytopathic effect by 50% (IIF assay) [1]: < 5 µg/mL
concentration reducing HSV cytopathic effect by 50% (IIF assay) [2]: < 5 µg/mL
